“Also recorded” adds a separate entry of the source.
Key:
[1] = Activity after boiling (kinetic stability); assay type: physicochemical; conditions: after 30 and 60 min of boiling; PodA 3 μM, PYO 100 μM
Protocol: FIG. 13. Activity of WT PodA30-162 and PodA10 after boiling. Protein was boiled as described in Materials and Methods, followed by an activity assay with PodA (3 μM) and PYO (100 μM) in a Spectramax M3 plate reader monitoring PYO absorbance (690 nm) overtime. Specific activity (nmol min-1 mg-1) was calculated for each sample. Replicates of PodA^WT un-boiled were averaged and set to 100% activity (dashed line). All other activities of boiled samples were compared to this value and presented as a percentage. Data represent technical triplicates and error bars represent standard deviation. A t-test was completed, with * representing a p-value<0.05 and ns representing not significant.
Due to the high thermal stability of PodA, stability assays that rely on monitoring protein unfolding over a temperature gradient were not suitable for the related testing. Therefore the enzyme's kinetic stability were analyzed by boiling WT PodA41-162 and PodA10 and measuring activity of each protein after specified boiling times. […] We also noted that several designed mutations in PodA8 and PodA10 were not prevalent in a multiple-sequence alignment of PodA homologs (FIG. 14), indicating the importance of the atomistic calculations to design success

[2] = Continuous spectrophotometric PYO demethylation assay (specific activity and kinetics of PodA); assay type: biochemical; conditions: for Activity over range of pH: PodA10 3 μM
Outline: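 PodA (3 μM) with PYO (100 μM for specific activity; varied for kinetics) in 50 mM phosphate pH 6.0, 1% ethylene glycol, 25 °C; PYO loss followed at 690 nm every 10 s for 10 min. Rates from linear slope via ε 4,130 M^−1 cm^−1; Km, Vmax by Michaelis–Menten, kcat = Vmax/[E].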

B1: PodA10: Designed PodA41-162 variant: A53N, I73T, A87V, M99V, A129T; SEQ ID NO: 4 (protein)
chain: MVTMTLDVKNDQVNKHDFGKPGMDVGDMDIFSDTLSVDGKQVGYDGGVCFFTNVTPDNPVTYCELTIHLDAGEIFARSLTPATLAPFTMTITGGTGEYANSKGELTVSGVATPDEKYELKLTK
Activity after boiling [1]: significantly higher activity compared to WT PodA30-162
catalytic efficiency in growth medium compared to buffer ([2]; LB and SCFM, PodA 3 μM): No change
catalytic efficiency compared with PodA^WT ([2]; Michaelis-Menten kinetics, 3 μM protein): slight increase in efficiency
PYO demethylation activity relative to wild type ([2]; PYO 50 μM, PodA variants 3 μM): wild-type activity was maintained
Activity over range of pH ([2]; PYO 100 μM): maintained activity over a large range of pH, with no observable preference between a pH of 5-9
Activity over range of pH ([2]; PYO 100 μM, listed as PodA1041-162): maintained activity over a large range of pH, with no observable preference between a pH of 5.5 and 9
Effect of salts (NaCl and KCl) on activity ([2]; cystic fibrosis sputum range, 66 mM Na+, 15 mM K+): not altered
Effect of slight increase in viscosity (ethylene glycol or glycerol 1% v/v) on activity ([2]; pH 6, PodA 3 μM, PYO 100 μM): slight ad-vantage; also recorded: slight advantage
